In patent US12679878B2, “CRF2 receptor agonists and their use in therapy” (SANOFI, priority 2020, dated 2026):
Starred links: 1 amine or outer side, 2 acyl side, 3 side chain; linkers in the order of their positions; H or OH if unused. Non-standard residues stand in square brackets, D forms with d. Groups on a side chain read outwards from the residue. No end group written: not given here. *: point of attachment. C20 diacid = O=C(O)CCCCCCCCCCCCCCCCCCC(=O)*; C18 diacid = O=C(O)CCCCCCCCCCCCCCCCC(=O)*; γGlu = O=C(O)[C@H](CCC(=O)[*:2])N[*:1]; AEEA = NCCOCCOCC(=O)O; Aib = CC(C)(N)C(=O)O

T1: anti-target CRF1R receptor (UniProt P34998 24-415, limits assumed)
T1 sequence (looked up): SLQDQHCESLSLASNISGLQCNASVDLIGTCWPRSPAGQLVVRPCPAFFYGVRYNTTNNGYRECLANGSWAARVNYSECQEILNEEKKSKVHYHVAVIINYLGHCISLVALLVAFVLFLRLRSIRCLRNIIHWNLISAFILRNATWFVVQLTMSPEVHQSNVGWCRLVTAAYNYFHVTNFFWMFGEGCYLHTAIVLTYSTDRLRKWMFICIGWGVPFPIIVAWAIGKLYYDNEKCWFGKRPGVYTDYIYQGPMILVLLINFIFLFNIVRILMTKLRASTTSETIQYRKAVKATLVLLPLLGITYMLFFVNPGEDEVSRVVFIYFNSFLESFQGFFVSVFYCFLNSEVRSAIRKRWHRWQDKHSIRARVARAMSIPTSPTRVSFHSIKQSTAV


Key:
rat CRF2R α receptor = rat CRF2R α receptor (rat, UniProt P47866 20-411); assay: cell-based or functional assay
[1] = target: T1, anti-target CRF1R receptor; assay: cell-based or functional assay

rat CRF2R α receptor, sequence (P47866 20-411): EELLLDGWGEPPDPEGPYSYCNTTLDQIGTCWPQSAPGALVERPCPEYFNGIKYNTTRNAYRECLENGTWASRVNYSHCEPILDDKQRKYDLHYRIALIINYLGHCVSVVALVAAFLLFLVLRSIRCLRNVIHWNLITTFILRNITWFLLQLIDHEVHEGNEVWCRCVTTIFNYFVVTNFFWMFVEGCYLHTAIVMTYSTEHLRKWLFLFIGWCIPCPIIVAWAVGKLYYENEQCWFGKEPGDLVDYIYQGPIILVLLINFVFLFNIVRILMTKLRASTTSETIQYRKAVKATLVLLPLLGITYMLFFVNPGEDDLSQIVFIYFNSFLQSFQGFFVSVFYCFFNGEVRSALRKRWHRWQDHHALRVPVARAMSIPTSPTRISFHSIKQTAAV

| Binder | EC50 [nM], 0% HSA (cAMP, A7R5 cells) (rat CRF2R α receptor) [nM] | EC50[nM] 0% HSA (cAMP, CRF1R-overexpression CHO cells) [1] [nM] | Emax (%) (cAMP, CRF1R-overexpression CHO cells) [1] |
| --- | --- | --- | --- |
| IVLSLDVPIKLK([AEEA-AEEA-γGlu-C18 diacid])K[Aib]LLEQERQKKQREQAETNKQILAQV-NH2 (N-terminus assumed; SMILES CC[C@H](C)[C@H](N)C(=O)N[C@H](C(=O)N[C@@H](CC(C)C)C(=O)N[C@@H](CO)C(=O)N[C@@H](CC(C)C)C(=O)N[C@@H](CC(=O)O)C(=O)N[C@H](C(=O)N1CCC[C@H]1C(=O)N[C@H](C(=O)N[C@@H](CCCCN)C(=O)N[C@@H](CC(C)C)C(=O)N[C@@H](CCCCNC(=O)COCCOCCNC(=O)COCCOCCNC(=O)CC[C@H](NC(=O)CCCCCCCCCCCCCCCCC(=O)O)C(=O)O)C(=O)N[C@@H](CCCCN)C(=O)NC(C)(C)C(=O)N[C@@H](CC(C)C)C(=O)N[C@@H](CC(C)C)C(=O)N[C@@H](CCC(=O)O)C(=O)N[C@@H](CCC(N)=O)C(=O)N[C@@H](CCC(=O)O)C(=O)N[C@@H](CCCNC(=N)N)C(=O)N[C@@H](CCC(N)=O)C(=O)N[C@@H](CCCCN)C(=O)N[C@@H](CCCCN)C(=O)N[C@@H](CCC(N)=O)C(=O)N[C@@H](CCCNC(=N)N)C(=O)N[C@@H](CCC(=O)O)C(=O)N[C@@H](CCC(N)=O)C(=O)N[C@@H](C)C(=O)N[C@@H](CCC(=O)O)C(=O)N[C@H](C(=O)N[C@@H](CC(N)=O)C(=O)N[C@@H](CCCCN)C(=O)N[C@@H](CCC(N)=O)C(=O)N[C@H](C(=O)N[C@@H](CC(C)C)C(=O)N[C@@H](C)C(=O)N[C@@H](CCC(N)=O)C(=O)N[C@H](C(N)=O)C(C)C)[C@@H](C)CC)[C@@H](C)O)[C@@H](C)CC)C(C)C)C(C)C) [peptide of SEQ ID NO: 69] | 7.33 | > 1000 | 0.02 |
| IVLSLDVPIKLK([AEEA-AEEA-γGlu-C18 diacid])QILLEQEKQKKQREQAETNKQILAQV-NH2 (N-terminus assumed; SMILES CC[C@H](C)[C@H](N)C(=O)N[C@H](C(=O)N[C@@H](CC(C)C)C(=O)N[C@@H](CO)C(=O)N[C@@H](CC(C)C)C(=O)N[C@@H](CC(=O)O)C(=O)N[C@H](C(=O)N1CCC[C@H]1C(=O)N[C@H](C(=O)N[C@@H](CCCCN)C(=O)N[C@@H](CC(C)C)C(=O)N[C@@H](CCCCNC(=O)COCCOCCNC(=O)COCCOCCNC(=O)CC[C@H](NC(=O)CCCCCCCCCCCCCCCCC(=O)O)C(=O)O)C(=O)N[C@@H](CCC(N)=O)C(=O)N[C@H](C(=O)N[C@@H](CC(C)C)C(=O)N[C@@H](CC(C)C)C(=O)N[C@@H](CCC(=O)O)C(=O)N[C@@H](CCC(N)=O)C(=O)N[C@@H](CCC(=O)O)C(=O)N[C@@H](CCCCN)C(=O)N[C@@H](CCC(N)=O)C(=O)N[C@@H](CCCCN)C(=O)N[C@@H](CCCCN)C(=O)N[C@@H](CCC(N)=O)C(=O)N[C@@H](CCCNC(=N)N)C(=O)N[C@@H](CCC(=O)O)C(=O)N[C@@H](CCC(N)=O)C(=O)N[C@@H](C)C(=O)N[C@@H](CCC(=O)O)C(=O)N[C@H](C(=O)N[C@@H](CC(N)=O)C(=O)N[C@@H](CCCCN)C(=O)N[C@@H](CCC(N)=O)C(=O)N[C@H](C(=O)N[C@@H](CC(C)C)C(=O)N[C@@H](C)C(=O)N[C@@H](CCC(N)=O)C(=O)N[C@H](C(N)=O)C(C)C)[C@@H](C)CC)[C@@H](C)O)[C@@H](C)CC)[C@@H](C)CC)C(C)C)C(C)C) [peptide of SEQ ID NO: 67] | 0.66 | > 1000 | 9.18 |
| FTLSLDVPIKLK([AEEA-AEEA-γGlu-C20 diacid])QILLEQQKQKKERQQAETNVQLLERV-NH2 [peptide of SEQ ID NO: 63] | 4.73 | > 1000 | 4.68 |
| FTLSLDVPIKLK([AEEA-AEEA-γGlu-C20 diacid])QILLKQQKQKKERQQAETNVQLLERV-NH2 [peptide of SEQ ID NO: 62] | 2.9 | > 1000 | 2.28 |
| FTLSLDVPTKIK([AEEA-AEEA-γGlu-C20 diacid])QILFKQQKQKKERQQAEKNKQLLEQI-NH2 [peptide of SEQ ID NO: 58] | 0.72 | > 1000 | 9.12 |
| FTLSLDVPTKIK([AEEA-AEEA-γGlu-C20 diacid])QILLKQQKQKKERQQAEKNKQLLERV-NH2 [peptide of SEQ ID NO: 60] | 1.35 | > 1000 | 4.84 |
| FTLSLDVPTKIK([AEEA-AEEA-γGlu-C20 diacid])QILLKQQKQKKERQQAETNKQLLERV-NH2 [peptide of SEQ ID NO: 61] | 0.94 | > 1000 | 3.31 |
| FTLSLDVPIKLK([AEEA-AEEA-γGlu-C18 diacid])QILLKQQKQKKERQQAETNVQLLERV-NH2 (N-terminus assumed; SMILES CC[C@H](C)[C@H](NC(=O)[C@H](CCC(N)=O)NC(=O)[C@H](CCCCNC(=O)COCCOCCNC(=O)COCCOCCNC(=O)CC[C@H](NC(=O)CCCCCCCCCCCCCCCCC(=O)O)C(=O)O)NC(=O)[C@H](CC(C)C)NC(=O)[C@H](CCCCN)NC(=O)[C@@H](NC(=O)[C@@H]1CCCN1C(=O)[C@@H](NC(=O)[C@H](CC(=O)O)NC(=O)[C@H](CC(C)C)NC(=O)[C@H](CO)NC(=O)[C@H](CC(C)C)NC(=O)[C@@H](NC(=O)[C@@H](N)Cc1ccccc1)[C@@H](C)O)C(C)C)[C@@H](C)CC)C(=O)N[C@@H](CC(C)C)C(=O)N[C@@H](CC(C)C)C(=O)N[C@@H](CCCCN)C(=O)N[C@@H](CCC(N)=O)C(=O)N[C@@H](CCC(N)=O)C(=O)N[C@@H](CCCCN)C(=O)N[C@@H](CCC(N)=O)C(=O)N[C@@H](CCCCN)C(=O)N[C@@H](CCCCN)C(=O)N[C@@H](CCC(=O)O)C(=O)N[C@@H](CCCNC(=N)N)C(=O)N[C@@H](CCC(N)=O)C(=O)N[C@@H](CCC(N)=O)C(=O)N[C@@H](C)C(=O)N[C@@H](CCC(=O)O)C(=O)N[C@H](C(=O)N[C@@H](CC(N)=O)C(=O)N[C@H](C(=O)N[C@@H](CCC(N)=O)C(=O)N[C@@H](CC(C)C)C(=O)N[C@@H](CC(C)C)C(=O)N[C@@H](CCC(=O)O)C(=O)N[C@@H](CCCNC(=N)N)C(=O)N[C@H](C(N)=O)C(C)C)C(C)C)[C@@H](C)O) [peptide of SEQ ID NO: 54] | 1.51 | > 1000 | 2.72 |
